One molecule from patent publication US20170066807A1 (Pieris, published 2017) can be followed below.

The assay deals with T1, human GPC-3 on cells (SK Hep1:hGPC-3 transfectants; HepG2) (human, UniProt P51654 25-554).
T1 construct: whole, on cells; The same molecule is used for the transfected SK-Hep1 cells and the GPC-3 positive HepG2 cells; The cell line is named under assay; also called Glypican-3
Nature of the assay: confocal microscopy, cell surface staining of SK Hep1:hGPC-3 cells. How it is done:
Incubation of SK Hep1:hGPC-3 and SK Hep1:EV (empty vector control) and HepG2 cells with hNGAL muteins (SEQ ID NOs: 1-6) and staining of GPC-3 and bound hNGAL muteins followed by confocal microscopy. Cells (SK Hep1:GPC-3, SK Hep1:EV or HepG2) were grown at 37° in a humidified CO2 incubator for 24 hrs and exposed to hNGAL muteins 1.0 ug/mL, fixed (4% PFA in PBS) and stained with a rabbit anti-lipocalin antibody overnight at 4° C. prior to addition of secondary donkey anti-rabbit AF568 antibody. For nuclei staining, cells were incubated in 300 uL of DAPI solution (1:50000 DAPI in PBS). Slides were viewed using Leica TCS SP5 DNI6000 CS Confocal Microscope (Leica) using the following lasers. […] Results clearly indicate binding of ail hNGAL muteins (SEQ ID NOs: 2-6) to the cell lines expressing GPC-3 (presence of GPC-3 on the surface of the cells was also confirmed by confocal imaging) and lack of binding of such hNGAL muteins to control cell line (SK-Hep1:EV).

T1 sequence (P51654 25-554 limits assumed): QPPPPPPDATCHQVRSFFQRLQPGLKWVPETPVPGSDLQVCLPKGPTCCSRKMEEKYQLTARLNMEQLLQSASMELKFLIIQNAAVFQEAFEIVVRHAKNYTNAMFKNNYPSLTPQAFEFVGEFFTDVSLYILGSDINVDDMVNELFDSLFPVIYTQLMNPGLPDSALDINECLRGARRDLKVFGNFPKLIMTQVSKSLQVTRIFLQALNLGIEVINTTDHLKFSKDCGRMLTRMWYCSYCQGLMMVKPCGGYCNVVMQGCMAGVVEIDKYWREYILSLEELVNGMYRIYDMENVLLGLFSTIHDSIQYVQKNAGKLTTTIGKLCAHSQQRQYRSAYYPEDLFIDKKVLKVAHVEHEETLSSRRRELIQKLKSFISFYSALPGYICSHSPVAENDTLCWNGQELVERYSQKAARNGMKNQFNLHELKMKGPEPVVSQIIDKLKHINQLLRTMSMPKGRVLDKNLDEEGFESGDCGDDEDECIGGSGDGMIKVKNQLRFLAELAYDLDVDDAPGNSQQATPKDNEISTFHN

B1: lipocalin control (SEQ ID NO: 1) (other)
chain: QDSTSDLIPAPPLSKVPLQQNFQDNQFHGKWYVVGLAGNAILREDKDPQKMYATIYELKEDKSYNVTSVLFRKKKCDYWIRTFVPGSQPGEFTLGNIKSYPGLTSYLVRVVSTNYNQHAMVFFKKVSQNREYFKITLYGRTKELTSELKENFIRFSKSLGLPENHIVFPVPIDQCIDG
notes: also called mature human Lipocalin 2; mature hNGAL
Regarding B1, the binding result is on record as “no binding (tested: 1.0 ug/mL)”.
